This note sets out measurements from PMC10197580.

In this test the target is T1, CST with the His6-MBP tag cleaved (human), Q2NKJ3.
T1 chain 1: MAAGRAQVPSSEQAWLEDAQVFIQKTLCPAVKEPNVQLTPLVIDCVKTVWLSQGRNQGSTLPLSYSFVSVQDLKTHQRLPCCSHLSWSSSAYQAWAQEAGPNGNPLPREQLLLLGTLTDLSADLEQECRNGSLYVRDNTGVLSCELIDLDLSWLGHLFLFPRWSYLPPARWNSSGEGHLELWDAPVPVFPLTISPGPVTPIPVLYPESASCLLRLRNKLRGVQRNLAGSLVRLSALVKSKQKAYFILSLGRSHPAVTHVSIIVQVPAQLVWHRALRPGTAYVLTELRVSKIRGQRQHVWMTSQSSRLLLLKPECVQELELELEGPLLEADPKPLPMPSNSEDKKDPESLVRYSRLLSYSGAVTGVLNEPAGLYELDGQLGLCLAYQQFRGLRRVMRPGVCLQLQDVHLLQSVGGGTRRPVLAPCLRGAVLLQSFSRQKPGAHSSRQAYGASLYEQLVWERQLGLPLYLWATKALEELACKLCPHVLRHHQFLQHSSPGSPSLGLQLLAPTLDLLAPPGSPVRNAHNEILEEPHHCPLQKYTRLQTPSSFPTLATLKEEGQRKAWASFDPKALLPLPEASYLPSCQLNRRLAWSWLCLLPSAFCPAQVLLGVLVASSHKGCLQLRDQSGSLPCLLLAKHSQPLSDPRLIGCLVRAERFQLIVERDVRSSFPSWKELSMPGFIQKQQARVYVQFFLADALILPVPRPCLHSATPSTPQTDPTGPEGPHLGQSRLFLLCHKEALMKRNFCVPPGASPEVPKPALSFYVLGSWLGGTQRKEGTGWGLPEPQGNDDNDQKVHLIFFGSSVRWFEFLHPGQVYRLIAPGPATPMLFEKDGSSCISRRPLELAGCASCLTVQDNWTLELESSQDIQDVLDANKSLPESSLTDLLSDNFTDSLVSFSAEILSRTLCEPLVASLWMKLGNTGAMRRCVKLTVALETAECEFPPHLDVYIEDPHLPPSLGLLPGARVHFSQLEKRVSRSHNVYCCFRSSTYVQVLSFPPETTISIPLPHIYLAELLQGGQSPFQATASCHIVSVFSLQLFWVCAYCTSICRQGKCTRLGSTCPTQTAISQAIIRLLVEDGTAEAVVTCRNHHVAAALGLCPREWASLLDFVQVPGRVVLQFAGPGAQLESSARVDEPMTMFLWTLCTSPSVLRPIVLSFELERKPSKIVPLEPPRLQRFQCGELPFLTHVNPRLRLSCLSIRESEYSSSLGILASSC
T1 chain 2: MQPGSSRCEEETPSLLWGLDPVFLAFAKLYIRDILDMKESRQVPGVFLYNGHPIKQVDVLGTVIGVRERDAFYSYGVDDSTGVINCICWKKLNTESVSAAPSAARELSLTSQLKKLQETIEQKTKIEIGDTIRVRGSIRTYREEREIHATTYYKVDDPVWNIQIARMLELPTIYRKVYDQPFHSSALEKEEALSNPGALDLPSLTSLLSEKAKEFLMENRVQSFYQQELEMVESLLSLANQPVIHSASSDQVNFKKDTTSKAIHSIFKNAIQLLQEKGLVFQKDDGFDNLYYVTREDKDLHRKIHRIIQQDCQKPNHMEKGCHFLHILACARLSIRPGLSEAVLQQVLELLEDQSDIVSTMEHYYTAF
T1 chain 3: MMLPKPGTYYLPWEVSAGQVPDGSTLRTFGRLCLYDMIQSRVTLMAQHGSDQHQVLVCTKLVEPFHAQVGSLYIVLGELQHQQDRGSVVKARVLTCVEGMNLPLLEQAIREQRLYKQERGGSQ
The experiment in a line: negative-stain EM. To be noted: remark: other sources report otherwise.

B1: CST with the His6-MBP tag cleaved, Q2NKJ3;Q9H668;Q86WV5 (complex)
chain 1: MAAGRAQVPSSEQAWLEDAQVFIQKTLCPAVKEPNVQLTPLVIDCVKTVWLSQGRNQGSTLPLSYSFVSVQDLKTHQRLPCCSHLSWSSSAYQAWAQEAGPNGNPLPREQLLLLGTLTDLSADLEQECRNGSLYVRDNTGVLSCELIDLDLSWLGHLFLFPRWSYLPPARWNSSGEGHLELWDAPVPVFPLTISPGPVTPIPVLYPESASCLLRLRNKLRGVQRNLAGSLVRLSALVKSKQKAYFILSLGRSHPAVTHVSIIVQVPAQLVWHRALRPGTAYVLTELRVSKIRGQRQHVWMTSQSSRLLLLKPECVQELELELEGPLLEADPKPLPMPSNSEDKKDPESLVRYSRLLSYSGAVTGVLNEPAGLYELDGQLGLCLAYQQFRGLRRVMRPGVCLQLQDVHLLQSVGGGTRRPVLAPCLRGAVLLQSFSRQKPGAHSSRQAYGASLYEQLVWERQLGLPLYLWATKALEELACKLCPHVLRHHQFLQHSSPGSPSLGLQLLAPTLDLLAPPGSPVRNAHNEILEEPHHCPLQKYTRLQTPSSFPTLATLKEEGQRKAWASFDPKALLPLPEASYLPSCQLNRRLAWSWLCLLPSAFCPAQVLLGVLVASSHKGCLQLRDQSGSLPCLLLAKHSQPLSDPRLIGCLVRAERFQLIVERDVRSSFPSWKELSMPGFIQKQQARVYVQFFLADALILPVPRPCLHSATPSTPQTDPTGPEGPHLGQSRLFLLCHKEALMKRNFCVPPGASPEVPKPALSFYVLGSWLGGTQRKEGTGWGLPEPQGNDDNDQKVHLIFFGSSVRWFEFLHPGQVYRLIAPGPATPMLFEKDGSSCISRRPLELAGCASCLTVQDNWTLELESSQDIQDVLDANKSLPESSLTDLLSDNFTDSLVSFSAEILSRTLCEPLVASLWMKLGNTGAMRRCVKLTVALETAECEFPPHLDVYIEDPHLPPSLGLLPGARVHFSQLEKRVSRSHNVYCCFRSSTYVQVLSFPPETTISIPLPHIYLAELLQGGQSPFQATASCHIVSVFSLQLFWVCAYCTSICRQGKCTRLGSTCPTQTAISQAIIRLLVEDGTAEAVVTCRNHHVAAALGLCPREWASLLDFVQVPGRVVLQFAGPGAQLESSARVDEPMTMFLWTLCTSPSVLRPIVLSFELERKPSKIVPLEPPRLQRFQCGELPFLTHVNPRLRLSCLSIRESEYSSSLGILASSC
chain 2: MQPGSSRCEEETPSLLWGLDPVFLAFAKLYIRDILDMKESRQVPGVFLYNGHPIKQVDVLGTVIGVRERDAFYSYGVDDSTGVINCICWKKLNTESVSAAPSAARELSLTSQLKKLQETIEQKTKIEIGDTIRVRGSIRTYREEREIHATTYYKVDDPVWNIQIARMLELPTIYRKVYDQPFHSSALEKEEALSNPGALDLPSLTSLLSEKAKEFLMENRVQSFYQQELEMVESLLSLANQPVIHSASSDQVNFKKDTTSKAIHSIFKNAIQLLQEKGLVFQKDDGFDNLYYVTREDKDLHRKIHRIIQQDCQKPNHMEKGCHFLHILACARLSIRPGLSEAVLQQVLELLEDQSDIVSTMEHYYTAF
chain 3: MMLPKPGTYYLPWEVSAGQVPDGSTLRTFGRLCLYDMIQSRVTLMAQHGSDQHQVLVCTKLVEPFHAQVGSLYIVLGELQHQQDRGSVVKARVLTCVEGMNLPLLEQAIREQRLYKQERGGSQ
Turning to B1, the stoichiometry N (as a rule, the number of molecules, sites or subunits per partner or assembly) turned out to be 2.
